From US8703459B2, “Catalytic domains of beta(1,4)-galactosyltransferase I having altered metal ion specificity” (The United States of America, as represented by the …, priority 2003, dated 2014)
Like-named read-outs stand apart in the source and are kept apart here. Marks after values point to notes of the source that are not given here.

Legend:
[1] = target: T1, M344H-Gal-T1 (Bos taurus, UniProt P08037, C342T/M344H); test: Acceptor substrate inhibition of M344H-Gal-T1 catalytic activity; type: biochemical, bovine; settings: in the presence of Mn^2+ (5 mM in FIG. 7c)
T1 construct: codes for residues 130 to 402 of bovine Gal-T1; made in house; host or cells: E. coli BL21(DE3) pLysS (pET23a derivative pEGT-d129)
T1 sequence (P08037 130-402 C342T/M344H): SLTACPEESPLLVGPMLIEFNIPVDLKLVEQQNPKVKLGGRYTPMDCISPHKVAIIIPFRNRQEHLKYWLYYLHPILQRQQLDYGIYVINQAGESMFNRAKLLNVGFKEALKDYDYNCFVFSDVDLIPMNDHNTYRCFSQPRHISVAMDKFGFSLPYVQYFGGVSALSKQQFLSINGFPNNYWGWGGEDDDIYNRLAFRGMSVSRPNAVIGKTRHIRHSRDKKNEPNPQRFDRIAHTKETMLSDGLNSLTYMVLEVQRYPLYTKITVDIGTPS
Protocol: (§1) FIG. 7 depicts the effect of GlcNAc concentration on Gal-T activity of the M344H-Gal-T1 mutant (a) and wild-type enzyme, C342T-Gal-T1 (b), at different fixed concentrations of Mn^2+: (a) (●) 6 μM, (O) 20 μM, (▾) 0.5 mM, (open triangle) 1.5 mM, and (▪) 5 mM and (b) (●) 6 μM, (open triangle) 80 μM, (▪) 0.5 mM, (▴) 1.5 mM, and (A) 5 mM. The activity of the mutant (a) is inhibited above 2-5 mM GlcNAc at any concentrations of Mn^2+, whereas the activity of the wild type (b) is inhibited at 25-30 mM GlcNAc and above 0.5 mM Mn^2+. (c) Effect of either GlcNAc, chitobiose, or β-benzyl-GlcNAc concentration on Gal-T activity of the mutant M344H-Gal-T1 in the presence of 5 mM Mn^2+. Arrows indicate the inhibition concentration for the respective curves. It is known that the disaccharide chitobiose binds strongly to the Gal-T1 compared to the monosaccharide GlcNAc. The higher the affinity of the acceptor substrate, the lower the required inhibition concentrations.
(§2) The inhibition of the M344H-Gal-T1 mutant with higher concentrations of the acceptor is independent of the concentration of Mn^2+ used in the assay (FIGS. 7A-C), while in the wild type, low concentrations of metal have no effect on acceptor inhibition (FIGS. 7A-C). […]

[2] = target: T2, β4Gal-T1 (Bos taurus, UniProt P08037); settings: read-out: Km value of the acceptor; cited from earlier work
T2 sequence (P08037 1-402): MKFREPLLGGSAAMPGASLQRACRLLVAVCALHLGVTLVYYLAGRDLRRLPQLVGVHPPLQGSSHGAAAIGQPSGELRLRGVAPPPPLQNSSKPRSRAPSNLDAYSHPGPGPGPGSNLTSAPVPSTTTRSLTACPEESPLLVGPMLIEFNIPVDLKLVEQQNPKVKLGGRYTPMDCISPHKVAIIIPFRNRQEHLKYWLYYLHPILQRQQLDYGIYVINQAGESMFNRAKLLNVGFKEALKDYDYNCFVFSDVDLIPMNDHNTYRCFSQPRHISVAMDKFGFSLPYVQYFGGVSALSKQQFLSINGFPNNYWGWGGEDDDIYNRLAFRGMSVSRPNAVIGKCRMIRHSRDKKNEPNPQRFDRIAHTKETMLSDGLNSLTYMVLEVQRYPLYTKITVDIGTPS

[3] = β4Gal-T enzyme assay, specific activity in the presence of various metal ions; type: biochemical, bovine
Protocol: Protein concentrations were measured using the Bio-Rad Protein Assay kit, based on the method of Bradford and further verified on SDS-PAGE gels using standard protein concentration markers. An in vitro assay procedure for Gal-T1 has been reported previously (Ramakrishnan et al., J. Mol. Biol., 310:205 (2001)). The activities were measured using UDP-Gal as sugar nucleotide donor, and GlcNAc as the acceptor sugar. For the specific activity measurements, a 100 μL incubation mixture containing 25 mM GlcNAc, 5 mM MnCl2 or MgCl2, 20 mM Tris-HCl pH 8.0, 500 μM UDP-Gal, 500 ng M344H-Gal-T1 or 30 ng of C342T-Gal-T1 and 0.5 μCi ^3H-UDP-Gal was used for each Gal-T reaction. The incubation was carried out at 30° C. for 15 minutes. The reaction was terminated by adding of 200 μl cold water, and the mixture was passed through a 0.5 mL bed volume column of AG 1-X8 […] resin (Bio-Rad) to remove any unreacted ^3H-UDP-Gal. The column was washed successively with 300, 400 and 500 μl of cold water, and the column flow-through was diluted with Biosafe scintillation fluid; radioactivity was measured with a Beckman counter. A reaction without the acceptor sugar was used as a control. Only 0.1 mM concentration of ZnCl2 or CoCl2 was used whenever Zn^2+ or Co^2+ was used during the enzyme assay.

[4] = Metal ion activation curve, metal binding constants for Mn^2+; type: biochemical, bovine; settings: with Mn^2+
From the text: The activation curve of M344E-Gal-T1, using Mn^2+, is strikingly different from that of the wild-type enzyme (FIGS. 1A and 1B). In contrast to the wild type enzyme, the velocity curve obtained with the Mn^2+ concentration for the M344E-Gal-T1 mutant is not sigmoidal. On the other hand, the same curve for the M344H-Gal-T1 mutant in the presence of the Mg^2+ is sigmoidal (FIG. 1C). The observation that activation of the wild type enzyme by metal ions is sigmoidal has been interpreted as involving two metal binding sites in the enzyme: one with high affinity (Kd1), which is associated with low velocity, and a second site with low affinity (Kd2), which is associated with high velocity (Powell and Brew, J. Biol. Chem., 251:3645 (1976); Boeggeman and Qasba, Glycobiology, 12:395 (2002)). […] The values of the dissociation constant (Kd) for Mn^2+ of the mutant are quite different from that of the wild type (Table IV).
The enzyme activation data at various concentrations of Mg^2+ were fitted to an equation describing metal binding to a high affinity site (K1) to generate an enzyme form with a low kcat (V1) and to a second, lower affinity site (K2) to generate a form with a higher kcat (V2) (Boeggeman and Qasba, Glycobiology, 12:395 (2002)): […]

[5] = Two-substrate kinetic analysis of galactose transfer; type: biochemical, bovine; settings: with Mn^2+
From the text: The true Km of the donor (KA) and of the acceptor (KB), the dissociation constant of the donor, Kia, and kcat, were obtained using two-substrate analyses and the primary plots of at least five concentrations of donor (UDP-Gal) and five concentrations of acceptor, and the corresponding secondary plots of the intercepts and slopes. Initial rate conditions were linear with respect to time. A suitable range of donor and acceptor concentrations was chosen, which allowed accurate Michaelis-Menten constants to be derived. The data were also analyzed for a general two-substrate system using the following equations (Herbert, Initial Rate Enzymatic Kinetics, Springer-Verlag, New York (1975)) with the software EnzFitter, a Biosoft non-linear curve fitting program for Windows:
[formula] Here ν is the initial velocity and the rate equation for a sequential symmetrical, initial velocity pattern associated with equation 1, an ordered or random equilibrium mechanism in which substrate A dissociates well from the ECS complex with a dissociation constant of Kia. Equation 2 is for an asymmetric initial velocity pattern for a double-displacement or “ping-pong” mechanism. The kinetic parameters KA, KB, Kia, and Vmax were obtained from the fitted curves using the above rate equations. The graphical method and EnzFitter program gave very similar kinetic parameters.
This is quite similar to that of the wild-type enzyme (FIG. 2B) (Takase and Ebner, Curr. Top. Cell Regul., 24:51 (1984); Boeggeman and Qasba, Glycobiology, 12:395 (2002)). […] Although the catalytic efficiency with respect to donor and acceptor, compared to the wild-type enzyme with Mn^2+, has decreased by an order of about 13 and 6, respectively, the turnover number of the mutant, kcat, is reduced by only 60%. The lesser effect on kcat could be the result of Mg^2+ participating more efficiently in the formation of the transition state complex during the transfer reaction by the mutant or minor differences in the coordination geometry of the Mg^2+ in the mutant compared to that of Mn^2+ ion in the wild-type enzyme. The crystal structure of the M344H-Gal-T1 in complex with UDP-Gal in the presence of either Mn^2+ or Mg^2+ was then determined and compared to the structure with the wild-type UDP-Gal.metal complex. Crystal structure analysis of the M344E-Gal-T1 mutant in the presence of UDP-Gal and Mn^2+ was conducted to further understand the effect of the M344E mutation on the metal-ion binding site.

[6] = Effect of the acceptor concentration on Gal-T activity of the enzyme; type: biochemical, bovine; settings: in the presence of Mn^2+
Protocol: as §1, §2

[7] = 5 mM metal ion, 500 μM UDP-Gal, 25 mM GlcNAc

CC(=O)N[C@H]1[C@H](O[C@H]2[C@H](O)[C@@H](NC(C)=O)C(O)O[C@@H]2CO)O[C@H](CO)[C@@H](O)[C@@H]1O (stereo partly drawn) [chitobiose, βGlcNAc1-4GlcNAc]
inhibition of the catalytic activity of the M344H-Gal-T1 mutant by the acceptor [1]: at very low concentrations much more strongly than GlcNAc does | Km [2]: 1 mM

CC(=O)N[C@H]1[C@H](OCc2ccccc2)O[C@H](CO)[C@@H](O)[C@@H]1O [β-benzyl-GlcNAc]
inhibition of the catalytic activity of the M344H-Gal-T1 mutant by the acceptor [1]: at very low concentrations much more strongly than GlcNAc does

CC(=O)N[C@H]1C(O)O[C@H](CO)[C@@H](O)[C@@H]1O (stereo partly drawn) [GlcNAc, N-acetylglucosamine]
Km [2]: 5 mM

B1: wild-type β4Gal-T1: residues 130 to 402 of bovine Gal-T1 with Cysteine to Threonine exchange at 342 (C342T), used as wild-type enzyme (protein, UniProt P08037 130-402, looked up, variant C342T)
chain: SLTACPEESPLLVGPMLIEFNIPVDLKLVEQQNPKVKLGGRYTPMDCISPHKVAIIIPFRNRQEHLKYWLYYLHPILQRQQLDYGIYVINQAGESMFNRAKLLNVGFKEALKDYDYNCFVFSDVDLIPMNDHNTYRCFSQPRHISVAMDKFGFSLPYVQYFGGVSALSKQQFLSINGFPNNYWGWGGEDDDIYNRLAFRGMSVSRPNAVIGKTRMIRHSRDKKNEPNPQRFDRIAHTKETMLSDGLNSLTYMVLEVQRYPLYTKITVDIGTPS
modifications: catalytic domain
notes: residues 130 to 402 of bovine Gal-T1 with Cysteine to Threonine exchange at 342 (C342T), used as wild-type enzyme
Catalytic Activity in the Presence of Various Metal Ions: Co ([3]; 0.1 mM Co^2+, 500 μM UDP-Gal, 25 mM GlcNAc): 0.41^b picomoles per minute per nanogram | Catalytic Activity in the Presence of Various Metal Ions: Zn ([3]; 0.1 mM Zn^2+, 500 μM UDP-Gal, 25 mM GlcNAc): 1.42 picomoles per minute per nanogram | Catalytic Activity in the Presence of Various Metal Ions: Ca [3, 7]: 0 picomoles per minute per nanogram | Catalytic Activity in the Presence of Various Metal Ions: Mg [3, 7]: 0 picomoles per minute per nanogram | Catalytic Activity in the Presence of Various Metal Ions: Mn [3, 7]: 5.35 picomoles per minute per nanogram | Catalytic Activity in the Presence of Various Metal Ions: Sr [3, 7]: 0 picomoles per minute per nanogram | activation of the enzyme by Mg^2+ ([3]; Mg^2+): does not activate | Kd ([4]; read-out: metal ion Kd1): 30 µM | Kd ([4]; read-out: metal ion Kd2): 400 µM | GlcNAc KB (true Km of the acceptor) [5]: 10 mM | Kcat [5]: 3.6 s⁻¹ | Kcat/KA [5]: 40000 M⁻¹ s⁻¹ | Kia (dissociation constant of the donor) [5]: 0 | UDP-Gal KA (true Km of the donor) [5]: 95(6) μM | UDP-Gal Vmax [5]: 6.4(4) pmol min^−1 ng^−1 | GlcNAc concentrations at which catalytic activity is inhibited [6]: 20 to 25 mM | GlcNAc concentrations at which catalytic activity is inhibited ([6]; listed as C342T-Gal-T1): 25 to 30 mM
